Laboratory results published in doi:10.1101/2023.05.17.540984.
Read-outs that look alike come from different tables or passages of the source.

Legend:
ELK1 [1] = target: T1, ELK1 (UniProt P19419 1-428); assay: EMSA
T1 sequence: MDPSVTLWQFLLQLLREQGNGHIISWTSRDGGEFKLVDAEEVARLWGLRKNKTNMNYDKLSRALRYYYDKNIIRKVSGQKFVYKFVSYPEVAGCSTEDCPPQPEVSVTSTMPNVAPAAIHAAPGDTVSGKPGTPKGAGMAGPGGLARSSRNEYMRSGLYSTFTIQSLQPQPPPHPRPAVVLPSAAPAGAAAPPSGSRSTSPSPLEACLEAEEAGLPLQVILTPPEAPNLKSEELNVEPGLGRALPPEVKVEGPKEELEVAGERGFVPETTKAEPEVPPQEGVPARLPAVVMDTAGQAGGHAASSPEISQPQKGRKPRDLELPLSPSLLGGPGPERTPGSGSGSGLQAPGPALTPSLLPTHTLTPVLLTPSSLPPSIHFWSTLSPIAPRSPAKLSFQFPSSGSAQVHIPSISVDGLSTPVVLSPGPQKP

ELK1 [2] = target: T1, ELK1; assay: EMSA; remark: listed apart in the source

B1: rs8040749-A probe (reference allele) (dsDNA)
DNA 1: CCTGCCTTCCAGAAGTTCATG
DNA 2: CATGAACTTCTGGAAGGCAGG
binding result (ELK1 [1]): no binding

B2: rs8040749-G probe (centenarian allele) (dsDNA)
DNA 1: CCTGCCTTCCGGAAGTTCATG
DNA 2: CATGAACTTCCGGAAGGCAGG
binding result (ELK1 [2]): binds
